# Tested on: MS2 coat protein
# Assay: apparent KD of MS2 coat protein; designed switch direction (-1 OFF switch, 1 ON switch): -1; higher = weaker reporter binding
# Method in brief: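 Designed RNA switches sharing common flanks were transcribed on Illumina chips by stalled E. coli RNA polymerase. They were titrated with SNAP-549-labelled MS2 coat protein, from 0.7 or 1.5 nM doubling to 3 µM, in Tris-HCl pH 7.5 buffer with KCl, MgCl2, BSA, DTT, tRNA and Tween-20. Titrations ran without input, with 200 uM small-molecule ligand, or with an oligonucleotide input. The apparent KD of each design is the median over its clusters, after curve-fitting of normalised cluster fluorescence.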
# [1] = input ligand: microRNA oligo, concentration not stated
# [2] = Eterna round: R95, input ligand: FMN 200 uM
# [3] = Eterna round: R95, input ligand: microRNA oligo, concentration not stated
# [4] = Eterna round: R95, input ligand: none
Sequence,apparent KD of MS2 coat protein (input ligand: FMN 200 uM) [nM],apparent KD of MS2 coat protein (input ligand: none) [nM],apparent KD of MS2 coat protein [1] [nM],apparent KD of MS2 coat protein [2] [nM],apparent KD of MS2 coat protein [3] [nM],apparent KD of MS2 coat protein [4] [nM]
"UUAGAGUAAUAGGAUAUGCUACGUCACGGCUGUGCAGAAGGAUUAACAUGAGGAUCACCCAUGUGGUGAGUCCU [Eternabot (L1) Solution 31] (Eterna round: R97, puzzle: Exclusion 6)",242,985,,,,
"AAAUAACUAGGAUAUCGAGGCACAGACAUGAGGAUCACCCAUGUGUGGUCUUCGUGCUUACGAGAAGGAGUACGGC [Teceri] (Eterna round: R96, puzzle: Exclusion 5)",199,305,175,,,
"GUAUACAAGCAAAGAUCCCACAUGAGGAUCACCCAUGUGCUCGUCUUAUAAGGUACUGUGACGAAAGUCACGGUACC [Mat - Sensor, turn-off var - Eli Mod - D103] (Eterna round: R97, puzzle: Sensor, turn-off variant 1)",42.9,43,,,,
"CAUUACUACAAGCUAAGGGACAUGAGGAUCACCCAUGUUCGUCUUAUUGAUCUAGGUACGCUGACGUACCUAGAUCU [JL-sv1-2.23 Brourd mod] (puzzle: Sensor v3, turn-off variant 1)",,,,15.8,20.1,14.6
AUGGAACAUGAGGAUCACCCAUGUGAGGAUAUGUGAGAAGGAUUUGAGAUGGAGAGGGACAGAAGGCACUAGGA [JR_Exclu1_Sub082] (puzzle: Exclusion 1),,,,,37.6,
GAGAAACAUGAGGAUCACCCAUGUAAGGAUAUGCUGAAAACAACGGAUAAAACGUGCAGCAGAAGGUACAAAGG [Mat - Mod of my Eli Mod D41] (puzzle: Exclusion 1),,,,76.5,72.1,72.4
"GCAGCUAAUCGAGGAUAUCAGCACGAUUAGUGCUGAGAAGGCGACAUGAGGAUCACCCAUGUGAUCAAUUAAUAUUAAUGCUGC [ENG1/11-A1] (Eterna round: R96, puzzle: Exclusion NG 1)",774,505,295,,,
"UUGGUACUGGUAGGAUAUCCGUUGGAAACCGUCGGAGAAGGACCACAGUCACUGGGUCUUUGUCAAGUGGAGUGGAAGAACCAU [pwkr exNG1 F6.24] (Eterna round: R96, puzzle: Exclusion NG 1)",224,227,221,,,
"GCACGAAGUGUAGGAUAUCUGUGCGAUUAGCUCAGAGAAGGACACAUGAGGAUCACCCAUGUUUUCCACGGAUAGCAAACGUGC [Eli exng1 - 059] (Eterna round: R96, puzzle: Exclusion NG 1)",21,19.6,14.4,,,
"AUAAAAGAGUUAGGAUAUCGGAAAGGAAGUGUACGAGAAGGAACGGUAUCCUCGGAAAGACAUGAGGAUCACCCAUGUAGAAAA [PowerStrip EXNG 1.6] (Eterna round: R96, puzzle: Exclusion NG 1)",34.9,35.4,23.4,,,
"CCAUAUAACUGAGGAUAUCAUCGCAACUGACGUUGAGAAGGCAGACAUGAGGAUCACCCAUGUGAUUUCUCAAUAUUAUACAUC [Prohibition 80 - Jieux - Exclusion NG 1] (Eterna round: R96, puzzle: Exclusion NG 1)",245,61.1,31.2,,,
"GCAGCAUAGUUUACUGACUGUUACAUGAGGAUCACCCAUGUUCAGGAUAUGGUCUGGAUUACAGGCCAGAAGGGAACAAGCUGC [Eli exng3 - 030] (Eterna round: R96, puzzle: Exclusion NG 3)",9.17,10.6,10.9,,,
"AAAAAACAUGAGGAUCACCCAUGUAAGGAUAUGCUGAAAAACACGGAAAAAACGUGCAGCAGAAGGUACAAAAG [Mat - Exclusion 1 - Eli mod - D90] (Eterna round: R96, puzzle: Exclusion 1)",100,61.6,55,,,
"GAGAAAGCAAACAGGUGAAACAUGAGGAUCACCCAUGUCCUCAUUUGCUCGUCUUAUAAGCUAUGCGAAAGCAUAGC [Mat - Sensor v3 - turn-off var 1 - Eli Mod - D54] (puzzle: Sensor v3, turn-off variant 1)",,,,63.5,642,58.7
